Data taken from publication doi:10.1101/2022.02.17.480967.

Target: H1.2 2-108 (UniProt P16403 2-108)
Test: fluorescence polarization

H1.2 2-108, sequence (P16403 2-108): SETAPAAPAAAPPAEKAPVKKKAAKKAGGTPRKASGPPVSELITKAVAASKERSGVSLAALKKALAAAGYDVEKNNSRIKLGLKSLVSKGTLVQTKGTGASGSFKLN

B1: fluorescein-labeled 30-mer DNA (printed strands are 27 nt) (dsDNA)
DNA 1: ATCATTAATATGAATTCGCCACATGCA
DNA 2: TGCATGTGGCGAATTCATATTAATGAT
In the case of B1, the binding signal is reported as 50 fold lower affinity than full-length H1.2.
